Measured values reported in paper PMC7614784, “Structure and function of the RAD51B-RAD51C-RAD51D-XRCC2 tumour suppressor” (Nature, 2023).

Target: T1, BCDX2(AF647) (Homo sapiens, UniProt O15315;O43502;O75771;O43543 1-345;1-376;1-328;1-280)
T1 sequence 1: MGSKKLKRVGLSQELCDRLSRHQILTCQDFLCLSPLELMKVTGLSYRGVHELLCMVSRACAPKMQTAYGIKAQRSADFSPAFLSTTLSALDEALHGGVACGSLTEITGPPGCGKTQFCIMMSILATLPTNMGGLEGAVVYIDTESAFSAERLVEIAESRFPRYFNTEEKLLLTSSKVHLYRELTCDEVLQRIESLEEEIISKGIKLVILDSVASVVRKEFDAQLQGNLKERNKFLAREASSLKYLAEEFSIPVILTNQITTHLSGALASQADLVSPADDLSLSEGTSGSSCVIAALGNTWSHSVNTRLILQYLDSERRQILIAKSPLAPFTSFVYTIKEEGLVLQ
T1 sequence 2: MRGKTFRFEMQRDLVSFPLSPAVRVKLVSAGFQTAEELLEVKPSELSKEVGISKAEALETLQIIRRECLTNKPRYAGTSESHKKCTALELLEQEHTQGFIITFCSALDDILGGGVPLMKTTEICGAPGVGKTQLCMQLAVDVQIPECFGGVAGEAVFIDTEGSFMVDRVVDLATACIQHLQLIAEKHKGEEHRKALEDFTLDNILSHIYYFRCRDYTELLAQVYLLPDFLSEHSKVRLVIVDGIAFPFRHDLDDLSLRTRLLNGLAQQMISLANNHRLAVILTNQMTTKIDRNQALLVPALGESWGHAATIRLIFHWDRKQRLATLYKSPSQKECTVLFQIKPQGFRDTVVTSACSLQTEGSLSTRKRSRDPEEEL
T1 sequence 3: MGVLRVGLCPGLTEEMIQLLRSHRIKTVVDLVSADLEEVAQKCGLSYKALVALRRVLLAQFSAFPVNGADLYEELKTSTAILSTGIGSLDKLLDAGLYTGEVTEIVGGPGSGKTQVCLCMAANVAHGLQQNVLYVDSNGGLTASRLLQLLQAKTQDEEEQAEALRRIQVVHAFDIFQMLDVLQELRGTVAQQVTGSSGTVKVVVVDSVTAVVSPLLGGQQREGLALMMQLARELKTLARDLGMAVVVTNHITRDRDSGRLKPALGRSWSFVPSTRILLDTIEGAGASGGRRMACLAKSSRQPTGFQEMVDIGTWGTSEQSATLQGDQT
T1 sequence 4: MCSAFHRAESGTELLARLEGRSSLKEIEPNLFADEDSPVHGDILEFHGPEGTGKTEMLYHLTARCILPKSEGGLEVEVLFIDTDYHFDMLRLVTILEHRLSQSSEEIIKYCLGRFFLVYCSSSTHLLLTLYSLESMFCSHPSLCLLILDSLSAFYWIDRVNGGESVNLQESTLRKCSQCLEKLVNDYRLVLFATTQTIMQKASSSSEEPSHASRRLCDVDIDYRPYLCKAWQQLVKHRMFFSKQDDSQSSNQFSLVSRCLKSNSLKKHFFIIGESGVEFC
Experiment: bulk FRET; high FRET; XRCC2 near 5' end; FA: protein in 25 mM HEPES pH 7.5, 10% glycerol, 2.5 mM MgCl2, 0.25 mM TCEP, 150 mM NaCl mixed 1:1 with oligo in HMT buffer, 50 mM NaCl (final ~100 mM NaCl, 5%)
Conditions: protein: recombinant; copies: 1;1;1;1; label: 5'-Cy3

B1: 5'-Cy3-dN15nt (ssDNA)
DNA: TATCGAATCCGTCTA
B1: binds.
